According to US20060165682A1 (Janssen / Centocor, published 2006):

What was measured:
Assay in all cases: epitope map assay, OD on overlapping 10-mer peptides
[1] = biological target: T1, VGSNKGAIIG
T1 construct: Aβ 24-33; this label stands at two neighbouring bars
T1 peptide: VGSNKGAIIG

[2] = biological target: T2, MVGGVVIATV
T2 construct: Aβ 35-43 + one further APP residue
T2 peptide: MVGGVVIATV

[3] = biological target: T3, EVHHQKLVFF
T3 construct: Aβ 11-20
T3 peptide: EVHHQKLVFF

[4] = biological target: T4, MDAEFRHDSG
T4 construct: APP flank + Aβ 1-9
T4 peptide: MDAEFRHDSG

[5] = biological target: T5, SGYEVHHQKL
T5 construct: Aβ 8-17
T5 peptide: SGYEVHHQKL

[6] = biological target: T6, GAIIGLMVGG
T6 construct: Aβ 29-38
T6 peptide: GAIIGLMVGG

[7] = biological target: T7, RHDSGYEVHH
T7 construct: Aβ 5-14
T7 peptide: RHDSGYEVHH

[8] = biological target: T8, SEVKMDAEFR
T8 construct: APP flank + Aβ 1-5
T8 peptide: SEVKMDAEFR

[9] = biological target: T9, HQKLVFFAED
T9 construct: Aβ 14-23
T9 peptide: HQKLVFFAED

[10] = biological target: T10, AEDVGSNKGA
T10 construct: Aβ 21-30
T10 peptide: AEDVGSNKGA

[11] = biological target: T11, EDVGSNKGAI
T11 construct: Aβ 22-31
T11 peptide: EDVGSNKGAI

[12] = biological target: T12, HDSGYEVHHQ
T12 construct: Aβ 6-15
T12 peptide: HDSGYEVHHQ

[13] = biological target: T13, FAEDVGSNKG
T13 construct: Aβ 20-29
T13 peptide: FAEDVGSNKG

[14] = biological target: T14, DVGSNKGAII
T14 construct: Aβ 23-32
T14 peptide: DVGSNKGAII

[15] = biological target: T15, AIIGLMVGGV
T15 construct: Aβ 30-39
T15 peptide: AIIGLMVGGV

[16] = biological target: T16, GLMVGGVVIA
T16 construct: Aβ 33-42
T16 peptide: GLMVGGVVIA

[17] = biological target: T17, EEISEVKMDA
T17 construct: APP flank + Aβ 1-2
T17 peptide: EEISEVKMDA

[18] = biological target: T18, EVKMDAEFRH
T18 construct: APP flank + Aβ 1-6
T18 peptide: EVKMDAEFRH

[19] = biological target: T19, QKLVFFAEDV
T19 construct: Aβ 15-24
T19 peptide: QKLVFFAEDV

[20] = biological target: T20, KGAIIGLMVG
T20 construct: Aβ 28-37
T20 peptide: KGAIIGLMVG

[21] = biological target: T21, HHQKLVFFAE
T21 construct: Aβ 13-22
T21 peptide: HHQKLVFFAE

[22] = biological target: T22, EISEVKMDAE
T22 construct: APP flank + Aβ 1-3
T22 peptide: EISEVKMDAE

[23] = biological target: T23, KLVFFAEDVG
T23 construct: Aβ 16-25
T23 peptide: KLVFFAEDVG

[24] = biological target: T24, VKMDAEFRHD
T24 construct: APP flank + Aβ 1-7
T24 peptide: VKMDAEFRHD

[25] = biological target: T25, FRHDSGYEVH
T25 construct: Aβ 4-13
T25 peptide: FRHDSGYEVH

[26] = biological target: T26, YEVHHQKLVF
T26 construct: Aβ 10-19
T26 peptide: YEVHHQKLVF

[27] = biological target: T27, IGLMVGGVVI
T27 construct: Aβ 32-41
T27 peptide: IGLMVGGVVI

[28] = biological target: T28, LMVGGVVIAT
T28 construct: Aβ 34-43
T28 peptide: LMVGGVVIAT

[29] = biological target: T29, FFAEDVGSNK
T29 construct: Aβ 19-28
T29 peptide: FFAEDVGSNK

[30] = biological target: T30, GSNKGAIIGL
T30 construct: Aβ 25-34
T30 peptide: GSNKGAIIGL

[31] = biological target: T31, KMDAEFRHDS
T31 construct: APP flank + Aβ 1-8
T31 peptide: KMDAEFRHDS

[32] = biological target: T32, IIGLMVGGVV
T32 construct: Aβ 31-40
T32 peptide: IIGLMVGGVV

[33] = biological target: T33, ISEVKMDAEF
T33 construct: APP flank + Aβ 1-4
T33 peptide: ISEVKMDAEF

[34] = biological target: T34, SNKGAIIGLM
T34 construct: Aβ 26-35
T34 peptide: SNKGAIIGLM

[35] = biological target: T35, EFRHDSGYEV
T35 construct: Aβ 3-12
T35 peptide: EFRHDSGYEV

[36] = biological target: T36, LVFFAEDVGS
T36 construct: Aβ 17-26
T36 peptide: LVFFAEDVGS

[37] = biological target: T37, DAEFRHDSGY
T37 construct: Aβ 1-10
T37 peptide: DAEFRHDSGY

[38] = biological target: T38, VFFAEDVGSN
T38 construct: Aβ 18-27
T38 peptide: VFFAEDVGSN

[39] = biological target: T39, AEFRHDSGYE
T39 construct: Aβ 2-11
T39 peptide: AEFRHDSGYE

[40] = biological target: T40, NKGAIIGLMV
T40 construct: Aβ 27-36
T40 peptide: NKGAIIGLMV

[41] = biological target: T41, GYEVHHQKLV
T41 construct: Aβ 9-18
T41 peptide: GYEVHHQKLV

[42] = biological target: T42, DSGYEVHHQK
T42 construct: Aβ 7-16
T42 peptide: DSGYEVHHQK

B1: mouse 15C11 antibody (antibody, V domains shown)
VH: EVKLVESGGGLVQPGGSLKLSCAASGFTFSRYSMSWVRQTPEKRLELVAKISNSGDNTYYPDTLKGRFTISRDNAQNTLYLQMSSLKSEDTAMYYCASGDYWGQGTTLTVSS
VL: DVVMTQTPLSLPVSLGDQASISCRSSQSLVHSDGNTYLHWYLQKPGQSPKLLIYKVSNRFSGVPDRFSGSGSGTDFTLKISRVEAEDLGVYFCSQSTHVWTFGGGTKLEIK
notes: Mouse monoclonal antibody from a hybridoma; The claims number the mature chains 1-111 and 1-112; also called mouse antibody 15C11
[1]
  binding result: no binding
[2]
  binding result: no binding
[3]
  binding result: no binding
[4]
  binding result: no binding
[5]
  binding result: no binding
[6]
  binding result: no binding
[7]
  binding result: no binding
[8]
  binding result: no binding
[9]
  binding result: binds
[10]
  binding result: no binding
[11]
  binding result: no binding
[12]
  binding result: no binding
[13]
  binding result: no binding
[14]
  binding result: no binding
[15]
  binding result: no binding
[16]
  binding result: no binding
[17]
  binding result: no binding
[18]
  binding result: no binding
[19]
  binding result: binds
[20]
  binding result: no binding
[21]
  binding result: binds
[22]
  binding result: no binding
[23]
  binding result: binds
[24]
  binding result: no binding
[25]
  binding result: no binding
[26]
  binding result: no binding
[27]
  binding result: no binding
[28]
  binding result: no binding
[29]
  binding result: binds
[30]
  binding result: no binding
[31]
  binding result: no binding
[32]
  binding result: no binding
[33]
  binding result: no binding
[34]
  binding result: no binding
[35]
  binding result: no binding
[36]
  binding result: binds
[37]
  binding result: no binding
[38]
  binding result: binds
[39]
  binding result: no binding
[40]
  binding result: no binding
[41]
  binding result: no binding
[42]
  binding result: no binding
